Measured values as given in publication PMC10516654, “Structural and functional characterization of MrpR, the master repressor of the Bacillus subtilis prophage SPβ”.

Target: T1, MrpR (Bacillus subtilis prophage SPβ, UniProt O34558 1-325)
T1 sequence: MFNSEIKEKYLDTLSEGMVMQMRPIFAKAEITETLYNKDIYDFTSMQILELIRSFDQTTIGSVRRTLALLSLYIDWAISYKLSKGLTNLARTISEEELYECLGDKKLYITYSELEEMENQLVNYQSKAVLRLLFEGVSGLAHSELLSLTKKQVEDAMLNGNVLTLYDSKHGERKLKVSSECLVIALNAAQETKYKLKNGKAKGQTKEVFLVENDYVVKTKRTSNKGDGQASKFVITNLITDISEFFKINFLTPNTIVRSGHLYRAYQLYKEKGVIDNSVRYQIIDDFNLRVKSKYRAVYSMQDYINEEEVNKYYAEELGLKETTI
Assay: ITC; ITC: 20 mM HEPES-Na pH 7.5, 200 mM NaCl, 20 mM KCl, 25 C, 20 uM DNA in cell, protein in syringe, one set of sites; EMSA: same buffer plus 50 ug/ml herring sperm DNA, 50 nM DNA, RT 15 min, 6% native PAGE 0.5x TBE
Conditions: protein: recombinant; tags: C-terminal His6; blunt

B1: aimR promoter ITC duplex (LC292/LC293) (dsDNA)
DNA 1: GAATTTTAAAGAGATTACAAATACAAAAAATATGTATAAAATAATTGACTCGTAATG
DNA 2: CATTACGAGTCAATTATTTTATACATATTTTTTGTATTTGTAATCTCTTTAAAATTC
- Kd: 238 ± 80 nM
